Results reported in paper doi:10.1101/2021.10.18.464900 (bioRxiv, 2021).

Columns and labels:
[1] = molecular target: T1, SARS-CoV-2 S protein trimer (Trimer) (SARS-CoV-2, Wuhan/reference, stabilised); assay: cryo-EM structure
[2] = molecular target: T1, SARS-CoV-2 S protein trimer (Trimer); assay: SPR
[3] = molecular target: T2, soluble RBD of SARS-CoV-2 S protein (REF / Wuhan-1 variant) (SARS-CoV-2, UniProt P0DTC2); assay: SPR
[4] = molecular target: RBD of SARS-CoV-2 S protein, Beta (SA) variant (SARS-CoV-2, Beta (B.1.351, SA), strain); assay: ELISA
[5] = molecular target: T2, soluble RBD of SARS-CoV-2 S protein …; assay: ELISA
[6] = molecular target: RBD of SARS-CoV-2 S protein, Alpha (UK) variant (SARS-CoV-2, Alpha (B.1.1.7, UK) variant, strain); assay: ELISA
[7] = molecular target: RBD (Wuhan) expressed on the surface of HEK-293T cells (SARS-CoV-2, Wuhan, UniProt P0DTC2); assay: flow cytometry on cells

Row | Binder | stoichiometry N [1] | kon [2] [M⁻¹ s⁻¹] | fold faster on-rate to RBD than to Trimer [3] [fold] | other results
1 | IMM20184 Fab (Fab, V domains shown) VH: EVQLVESGGGLVQPGGSLRLSCSASGFTFSSFWMSWVRQAPGKGLEWVATIREDGSEKYYVDSVKGRFSISRDNAKNSLYLQMNSLRAEDTAVYYCARSKWLRGSFDYWGQGTLVTVSS VL: NFMLTQPHSVSESPGKTVTISCTRRSGSIASNYVQWYQQRPGSAPTTVIYEDNQRPSGVPDRFSGSIDSSSNSASLTISGLQTEDEADYYCQSYDSSNPPGASWVFGGGTKLTVL | 3 Fab:Trimer | – | – | –
2 | IMM20184 (antibody, V domains shown) VH: EVQLVESGGGLVQPGGSLRLSCSASGFTFSSFWMSWVRQAPGKGLEWVATIREDGSEKYYVDSVKGRFSISRDNAKNSLYLQMNSLRAEDTAVYYCARSKWLRGSFDYWGQGTLVTVSS VL: NFMLTQPHSVSESPGKTVTISCTRRSGSIASNYVQWYQQRPGSAPTTVIYEDNQRPSGVPDRFSGSIDSSSNSASLTISGLQTEDEADYYCQSYDSSNPPGASWVFGGGTKLTVL | – | > 29500 | 17 | koff [2]: 0.00023 s⁻¹; koff [3]: 0.0013 s⁻¹
3 | IMM20253 (antibody, V domains shown) VH: QVQLVESGGGVVQPGRSLRLSCTASGFTFSTYGMHWVRQAPGKGLEWVAVISYDGSSKHYAESVKGRFTISRDNSNNTLYLQMNRLRAEDTAVYYCARDGQPPGWGNYFDYWGQGTLVTVAS VL: SYVLTQPPSVSVAPGKTARITCGGNGIGSKSVYWYQQKPGQAPEVVVYDDSDRPSGIPERFSGSNSGNTATLTISRVEAGDEADYYCQVWDSSSDPWVFGGGTKLTVL | – | > 29500 | 19 | percent inhibition of ACE2 binding [4]: ≤ 40%; percent inhibition of ACE2 binding [5]: ≤ 40%; percent inhibition of ACE2 binding [6]: ≤ 40%
4 | IMM20253 Fab (Fab, V domains shown) VH: QVQLVESGGGVVQPGRSLRLSCTASGFTFSTYGMHWVRQAPGKGLEWVAVISYDGSSKHYAESVKGRFTISRDNSNNTLYLQMNRLRAEDTAVYYCARDGQPPGWGNYFDYWGQGTLVTVAS VL: SYVLTQPPSVSVAPGKTARITCGGNGIGSKSVYWYQQKPGQAPEVVVYDDSDRPSGIPERFSGSNSGNTATLTISRVEAGDEADYYCQVWDSSSDPWVFGGGTKLTVL | 1 Fab:Trimer | – | – | –
5 | IMM20190 (antibody, V domains shown) VH: EVQLVESGGGLVQPGGSLRLSCSASGFTVSSNYMSWVRQAPRKGLEWVSVIYAGGSTFYADSVKGRFTISRDNSKNTLLLQMNSLRAEDTAVYYCARDRGGYLDYWGQGTLVTVSS VL: DIQMTQSPSSLSASVGDRVTITCRASQGISNYLAWYQQKPGKVPKLLIYAASTLQSGVPSRFSGSGSGTDFTLTISSLQPEDVATYYCQKYNSAPGLTFGGGTKVEIK | – | > 29500 | – | binding result [3]: binds; binding result [7]: binds
6 | IMM20190 Fab (Fab, V domains shown) VH: EVQLVESGGGLVQPGGSLRLSCSASGFTVSSNYMSWVRQAPRKGLEWVSVIYAGGSTFYADSVKGRFTISRDNSKNTLLLQMNSLRAEDTAVYYCARDRGGYLDYWGQGTLVTVSS VL: DIQMTQSPSSLSASVGDRVTITCRASQGISNYLAWYQQKPGKVPKLLIYAASTLQSGVPSRFSGSGSGTDFTLTISSLQPEDVATYYCQKYNSAPGLTFGGGTKVEIK | 3 Fab:Trimer | – | – | –
